How the values were obtained:
[1] = molecular target: CD47蛋白 (analyte in the ForteBio assay) (human, UniProt Q08722 19-139, limits assumed); test: BLI (ForteBio), antibody captured on Protein A sensor, CD47 protein in solution at 6 concentrations
[2] = molecular target: T1, 重组CD47-Fc融合蛋白 (human, UniProt Q08722 19-139, limits assumed); test: competition ELISA: CD47-Fc coated, antibody blocks binding of SIRPα-His, anti-His-HRP detection
T1 construct: not shown: Fc part

[3] = molecular target: CD47-his蛋白 (human); test: screening ELISA of hybridoma supernatant on coated CD47-his
CD47-his蛋白 (human), sequence (chain, as listed by the source limits assumed): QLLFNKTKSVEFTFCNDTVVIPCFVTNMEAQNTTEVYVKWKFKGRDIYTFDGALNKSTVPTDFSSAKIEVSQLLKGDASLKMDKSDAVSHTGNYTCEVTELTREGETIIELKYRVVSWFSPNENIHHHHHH

CD47蛋白 (analyte in the ForteBio assay), sequence (Q08722 19-139 limits assumed): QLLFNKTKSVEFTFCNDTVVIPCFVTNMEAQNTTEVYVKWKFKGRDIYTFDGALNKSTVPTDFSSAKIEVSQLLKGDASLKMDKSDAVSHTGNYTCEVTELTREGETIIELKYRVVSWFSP
T1 sequence (Q08722 19-139 limits assumed): as above

- Kd [1]: 0.0129 nM
- koff [1]: 1.1e-05 s⁻¹
- kon [1]: 853000 M⁻¹ s⁻¹
- EC50 [2]: 0.17 nM
- binding result [3]: binds
B1: 抗CD47单克隆抗体3D8 (杂交瘤细胞株3D8, CGMCC No:17293) (antibody, V domains shown)
VH: EVKLQESGAELMKPGASVKISCKATGYTFSRYWIEWVKQRPGHGLEWIGDILPGTSNTNYNEKFKGKATFTADSSSNTAYMQLSSLTSEDSAVYYCARRGLLRFDCWGQGTTVTVSS
VL: DIQLTQSPAIMSASPGEKVTMTCRASSSVSSSYLHWYQQKSGASPKLWIYSSSTLASGVPARFSGSGSGTSYSLTISSVEAEDAATYYCQQYSGYPLTFGSGTKLGIKR
